Data as given in paper PMC8080960 (The journal of physical chemistry. B, 2021).

Molecular target: the molecule itself
Assay: amyloid fibril formation

B1: C-terminal domain of TDP-43 (TDP-43CTD), wild type, residues 267-414, tagless (domain or fragment)
chain: GHMNRQLERSGRFGGNPGGFGNQGGFGNSRGGGAGLGNNQGSNMGGGMNFGAFSINPAMMAAAQAALQSSWGMMGMLASQQNQSGPSGNNQNQGNMQREPNQAFGSGNNSYSGSNSGAAIGWGSASNAGSGSGFNGGFGSSMDSKSSGWGM
binding result: binds
